The experiment concerns the target TM expressed on COS-7 cells from pTM-GFP recombinant plasmids (UniProt P07204). Briefly: atomic force microscopy.
UniProt P07204, sequence (P07204 19-575): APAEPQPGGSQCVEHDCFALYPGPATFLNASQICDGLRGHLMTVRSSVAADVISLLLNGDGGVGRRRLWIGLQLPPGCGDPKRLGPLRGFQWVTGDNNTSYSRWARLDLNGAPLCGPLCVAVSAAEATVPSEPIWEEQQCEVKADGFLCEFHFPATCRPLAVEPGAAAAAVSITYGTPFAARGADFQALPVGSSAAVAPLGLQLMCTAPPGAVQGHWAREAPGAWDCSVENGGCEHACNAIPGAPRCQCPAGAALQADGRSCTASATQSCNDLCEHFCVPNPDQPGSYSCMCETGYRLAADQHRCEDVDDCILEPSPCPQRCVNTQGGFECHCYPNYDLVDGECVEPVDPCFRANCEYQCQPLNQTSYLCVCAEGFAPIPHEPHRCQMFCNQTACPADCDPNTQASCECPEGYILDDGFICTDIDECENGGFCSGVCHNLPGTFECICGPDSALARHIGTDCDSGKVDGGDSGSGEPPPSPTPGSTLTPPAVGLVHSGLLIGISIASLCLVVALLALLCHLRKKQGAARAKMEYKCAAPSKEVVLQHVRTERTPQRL

In the case of “human alpha thrombin (from UniProt P00734 364-622) (enzyme)”, the interactional force (single-molecule rupture force), with atorvastatin was 84 pN; the interactional force (single-molecule rupture force), with pitavastatin is 87 pN; the interactional force (single-molecule rupture force), with rosuvastatin amounted to 74.4 pN.
